Data: patent US20150368338A1 (Janssen / Centocor, published 2015)

T1: IFN-αF (human, UniProt P01568 24-189)
T1 construct: also called IFN-α21; alpha F
T1 chain: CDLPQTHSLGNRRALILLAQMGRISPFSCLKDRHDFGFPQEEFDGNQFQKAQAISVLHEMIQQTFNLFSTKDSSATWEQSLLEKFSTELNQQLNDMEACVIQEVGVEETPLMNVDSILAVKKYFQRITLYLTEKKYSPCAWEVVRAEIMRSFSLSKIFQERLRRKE


Legend:
Assay in all cases: ProteOn, one antigen concentration
[1] = target: T2, human IFN-ω (human, UniProt P05000 24-195)
T2 construct: also called interferon omega
Text: (§1) To increase the assay throughput, only one concentration of the individual antigen was used.

[2] = target: T3, IFN-αC (human, UniProt P01566 24-189)
T3 construct: also called IFN-α10; alpha C
Text: as §1

[3] = target: T1, IFN-αF
Text: as §1

[4] = target: T4, IFN-αJ1 (human, UniProt P01567 24-189)
T4 construct: also called IFN-α7; alpha J1
Text: as §1

[5] = target: T5, IFN-α4a (human, UniProt P05014 24-189)
T5 construct: also called IFN-αM1
Text: as §1

[6] = target: T6, IFN-αG (human, UniProt P01569 24-189)
T6 construct: also called IFN-α5; alpha G
Text: as §1

[7] = target: T7, IFN-αWA (human, UniProt P05015 24-189)
T7 construct: also called IFN-α16; alpha WA
Text: as §1

| Binder | Kd [1] [nM] | Kd [2] [nM] | Kd [3] [nM] | Kd [4] [nM] | Kd [5] [nM] | Kd [6] [nM] | Kd [7] [nM] |
| --- | --- | --- | --- | --- | --- | --- | --- |
| IFWM3321 (antibody, V domains shown, VH IFWH591, VL IFWL1048; converted mAb; also called IFWB3056) VH: EVQLVQSGAEVKKPGESLKISCKGSGYSFTSYWIGWVRQMPGKGLEWMGIIDPSDSDTRYSPSFQGQVTISADKSISTAYLQWSSLKASDTAMYYCARHPGLNWAPDFDYWGQGTLVTVSS VL: DIQMTQSPSSLSASVGDRVTITCRASQSIDGALNWYQQKPGKAPKLLIYFASSLQSGVPSRFSGSGSGTDFTLTISSLQPEDFATYYCQQAYDFPLTFGQGTKVEIK | 0.033 | 0.033 | 0.024 | 0.079 | 0.159 | 0.036 | 0.058 |
| IFWM3322 (antibody, V domains shown, VH IFWH591, VL IFWL1051; converted mAb; also called IFWB3057) VH: EVQLVQSGAEVKKPGESLKISCKGSGYSFTSYWIGWVRQMPGKGLEWMGIIDPSDSDTRYSPSFQGQVTISADKSISTAYLQWSSLKASDTAMYYCARHPGLNWAPDFDYWGQGTLVTVSS VL: DIQMTQSPSSLSASVGDRVTITCRASQSIADFLNWYQQKPGKAPKLLIYFASSLQSGVPSRFSGSGSGTDFTLTISSLQPEDFATYYCQQSHSFPLTFGQGTKVEIK | 0.04 | 0.042 | 0.033 | 0.127 | 0.272 | 0.058 | 0.086 |
| IFWM3325 (antibody, V domains shown, VH IFWH591, VL IFWL1060; converted mAb; also called IFWB3060) VH: EVQLVQSGAEVKKPGESLKISCKGSGYSFTSYWIGWVRQMPGKGLEWMGIIDPSDSDTRYSPSFQGQVTISADKSISTAYLQWSSLKASDTAMYYCARHPGLNWAPDFDYWGQGTLVTVSS VL: DIQMTQSPSSLSASVGDRVTITCRASQSIRNSLNWYQQKPGKAPKLLIKWASSLQSGVPSRFSGSGSGTDFTLTISSLQPEDFATYYCQQLYDWPLTFGQGTKVEIK | 0.011 | 0.022 | 0.032 | 0.092 | 0.111 | 0.033 | 0.091 |
| IFWM3340 (antibody, V domains shown, VH IFWH624, VL IFWL983; converted mAb; also called IFWB3075) VH: EVQLVQSGAEVKKPGESLKISCKGSGYSFTSYWIGWVRQMPGKGLEWMGIIDPSDSDTAYSPSFQGQVTISADKSISTAYLQWSSLKASDTAMYYCARHPGLNWAPDFDYWGQGTLVTVSS VL: DIQMTQSPSSLSASVGDRVTITCRASQSIDGSLNWYQQKPGKAPKLLIYFASSLQSGVPSRFSGSGSGTDFTLTISSLQPEDFATYYCQQSYDFPLTFGQGTKVEIK | 0.004 | 0.048 | 0.041 | 0.124 | 0.201 | 0.024 | 0.056 |
| IFWM3341 (antibody, V domains shown, VH IFWH624, VL IFWL991; converted mAb; also called IFWB3076) VH: EVQLVQSGAEVKKPGESLKISCKGSGYSFTSYWIGWVRQMPGKGLEWMGIIDPSDSDTAYSPSFQGQVTISADKSISTAYLQWSSLKASDTAMYYCARHPGLNWAPDFDYWGQGTLVTVSS VL: DIQMTQSPSSLSASVGDRVTITCRASQSINRFLNWYQQKPGKAPKLLIYAASSLQSGVPSRFSGSGSGTDFTLTISSLQPEDFATYYCQQAIDLPFTFGQGTKVEIK | 0.008 | 0.104 | 0.088 | 0.275 | 0.445 | 0.063 | 0.134 |
| IFWM3342 (antibody, V domains shown, VH IFWH624, VL IFWL992; converted mAb; also called IFWB3077) VH: EVQLVQSGAEVKKPGESLKISCKGSGYSFTSYWIGWVRQMPGKGLEWMGIIDPSDSDTAYSPSFQGQVTISADKSISTAYLQWSSLKASDTAMYYCARHPGLNWAPDFDYWGQGTLVTVSS VL: DIQMTQSPSSLSASVGDRVTITCRASQSIGSFLNWYQQKPGKAPKLLIYFASSLQSGVPSRFSGSGSGTDFTLTISSLQPEDFATYYCQQSYSIPITFGQGTKVEIK | 0.068 | 0.142 | 0.164 | 0.269 | 0.589 | 0.014 | 0.095 |
| IFWM3343 (antibody, V domains shown, VH IFWH624, VL IFWL997; converted mAb; also called IFWB3078) VH: EVQLVQSGAEVKKPGESLKISCKGSGYSFTSYWIGWVRQMPGKGLEWMGIIDPSDSDTAYSPSFQGQVTISADKSISTAYLQWSSLKASDTAMYYCARHPGLNWAPDFDYWGQGTLVTVSS VL: DIQMTQSPSSLSASVGDRVTITCRASQSIGSALNWYQQKPGKAPKLLIYFASSLQSGVPSRFSGSGSGTDFTLTISSLQPEDFATYYCQQSYDFPLTFGQGTKVEIK | 0.02 | 0.065 | 0.063 | 0.157 | 0.237 | 0.06 | 0.083 |
| IFWM3344 (antibody, V domains shown, VH IFWH624, VL IFWL998; converted mAb; also called IFWB3079) VH: EVQLVQSGAEVKKPGESLKISCKGSGYSFTSYWIGWVRQMPGKGLEWMGIIDPSDSDTAYSPSFQGQVTISADKSISTAYLQWSSLKASDTAMYYCARHPGLNWAPDFDYWGQGTLVTVSS VL: DIQMTQSPSSLSASVGDRVTITCRASQSISKFLNWYQQKPGKAPKLLIYFASSLQSGVPSRFSGSGSGTDFTLTISSLQPEDFATYYCQQSNTLPFTFGQGTKVEIK | 0.078 | 0.161 | 0.14 | 0.274 | 0.442 | 0.112 | 0.105 |
| IFWM3345 (antibody, V domains shown, VH IFWH624, VL IFWL1000; converted mAb; also called IFWB3080) VH: EVQLVQSGAEVKKPGESLKISCKGSGYSFTSYWIGWVRQMPGKGLEWMGIIDPSDSDTAYSPSFQGQVTISADKSISTAYLQWSSLKASDTAMYYCARHPGLNWAPDFDYWGQGTLVTVSS VL: DIQMTQSPSSLSASVGDRVTITCRASQSITNFLNWYQQKPGKAPKLLIYFASSLQSGVPSRFSGSGSGTDFTLTISSLQPEDFATYYCQQSLDFPLTFGQGTKVEIK | 0.004 | 0.072 | 0.12 | 0.169 | 0.324 | 0.092 | 0.111 |
| IFWM3346 (antibody, V domains shown, VH IFWH624, VL IFWL1001; converted mAb; also called IFWB3081) VH: EVQLVQSGAEVKKPGESLKISCKGSGYSFTSYWIGWVRQMPGKGLEWMGIIDPSDSDTAYSPSFQGQVTISADKSISTAYLQWSSLKASDTAMYYCARHPGLNWAPDFDYWGQGTLVTVSS VL: DIQMTQSPSSLSASVGDRVTITCRASQSIGDFLNWYQQKPGKAPKLLIYFASSLQSGVPSRFSGSGSGTDFTLTISSLQPEDFATYYCQQALDFPLTFGQGTKVEIK | 0.052 | 0.105 | 0.117 | 0.505 | 0.48 | 0.086 | 0.17 |
| IFWM3347 (antibody, V domains shown, VH IFWH624, VL IFWL1004; converted mAb; also called IFWB3082) VH: EVQLVQSGAEVKKPGESLKISCKGSGYSFTSYWIGWVRQMPGKGLEWMGIIDPSDSDTAYSPSFQGQVTISADKSISTAYLQWSSLKASDTAMYYCARHPGLNWAPDFDYWGQGTLVTVSS VL: DIQMTQSPSSLSASVGDRVTITCRASQSIAEFLNWYQQKPGKAPKLLIYFASSLQSGVPSRFSGSGSGTDFTLTISSLQPEDFATYYCQQSIDFPLTFGQGTKVEIK | 0.048 | 0.096 | 0.136 | 0.411 | 0.35 | 0.084 | 0.125 |
| IFWM3348 (antibody, V domains shown, VH IFWH624, VL IFWL1006; converted mAb; also called IFWB3083) VH: EVQLVQSGAEVKKPGESLKISCKGSGYSFTSYWIGWVRQMPGKGLEWMGIIDPSDSDTAYSPSFQGQVTISADKSISTAYLQWSSLKASDTAMYYCARHPGLNWAPDFDYWGQGTLVTVSS VL: DIQMTQSPSSLSASVGDRVTITCRASQSIGGFLNWYQQKPGKAPKLLIYFASSLQSGVPSRFSGSGSGTDFTLTISSLQPEDFATYYCQQSYSLPITFGQGTKVEIK | 0.05 | 0.083 | 0.064 | 0.164 | 0.089 | 0.02 | 0.049 |
| IFWM3349 (antibody, V domains shown, VH IFWH624, VL IFWL1007; converted mAb; also called IFWB3084) VH: EVQLVQSGAEVKKPGESLKISCKGSGYSFTSYWIGWVRQMPGKGLEWMGIIDPSDSDTAYSPSFQGQVTISADKSISTAYLQWSSLKASDTAMYYCARHPGLNWAPDFDYWGQGTLVTVSS VL: DIQMTQSPSSLSASVGDRVTITCRASQSIGKSLNWYQQKPGKAPKLLIYFASSLQSGVPSRFSGSGSGTDFTLTISSLQPEDFATYYCQQSYDFPLTFGQGTKVEIK | 0.007 | 0.056 | 0.052 | 0.123 | 0.174 | 0.065 | 0.102 |
| IFWM3350 (antibody, V domains shown, VH IFWH624, VL IFWL1009; converted mAb; also called IFWB3085) VH: EVQLVQSGAEVKKPGESLKISCKGSGYSFTSYWIGWVRQMPGKGLEWMGIIDPSDSDTAYSPSFQGQVTISADKSISTAYLQWSSLKASDTAMYYCARHPGLNWAPDFDYWGQGTLVTVSS VL: DIQMTQSPSSLSASVGDRVTITCRASQSIDDFLNWYQQKPGKAPKLLIYFASSLQSGVPSRFSGSGSGTDFTLTISSLQPEDFATYYCQQSHTLPLTFGQGTKVEIK | 0.02 | 0.057 | 0.054 | 0.055 | 0.161 | 0.098 | 0.066 |
| IFWM3351 (antibody, V domains shown, VH IFWH624, VL IFWL1010; converted mAb; also called IFWB3086) VH: EVQLVQSGAEVKKPGESLKISCKGSGYSFTSYWIGWVRQMPGKGLEWMGIIDPSDSDTAYSPSFQGQVTISADKSISTAYLQWSSLKASDTAMYYCARHPGLNWAPDFDYWGQGTLVTVSS VL: DIQMTQSPSSLSASVGDRVTITCRASQSIDGALNWYQQKPGKAPKLLIYFASSLQSGVPSRFSGSGSGTDFTLTISSLQPEDFATYYCQQSFDFPLTFGQGTKVEIK | 0.004 | 0.048 | 0.053 | 0.14 | 0.113 | 0.015 | 0.033 |
